Blank lines part the entries; values can stand above or below the substance they belong to.
Experiments:
[1] = biological target: His-MBP-eYFP-PRDM9^Dom2 ZnF (Mus musculus domesticus (C57BL/6J strain)); test: native gel or EMSA; multimer assay II: construct bound to a 75-bp DNA (Hlx1 for PRDM9^Cst, Pbx1 for PRDM9^Dom2), native gel; MW of the lower shift read against a ladder of free DNA (75-740 bp) and divided by the monomer's MW; four replicates; crude bacterial lysates or in vitro expressed protein
[2] = biological target: MBP-ZnF-Cst (Mus musculus castaneus (CAST/EiJ)) (UniProt Q96EQ9); test: EMSA; conditions: 10 mM Tris pH 7.5, 50 mM KCl, 50 uM ZnCl2, 0.05% NP-40 (1x TKZN), usually 50 ng/ul polydIdC, 60 min at RT, 5% native PAGE in 0.5x TBE
[3] = biological target: His-PRDM9^Cst ZnF2–6 (Mus musculus castaneus (CAST/EiJ strain)); test: native gel or EMSA; multimer assay II: construct bound to a 75-bp DNA (Hlx1 for PRDM9^Cst, Pbx1 for PRDM9^Dom2), native gel; MW of the lower shift read against a ladder of free DNA (75-740 bp) and divided by the monomer's MW; four replicates; crude bacterial lysates or in vitro expressed protein
[4] = biological target: His-PRDM9^Cst ZnF2–6 (Mus musculus castaneus (CAST/EiJ strain)); test: native gel or EMSA; multimer assay I: construct bound to single-Hlx1 and tandem-Hlx1 DNA fragments of rising length, native 5% polyacrylamide gel; MW of the second complex (supershift) read from the regression of the lower shifts and divided by the monomer's MW; crude bacterial lysates or in vitro expressed protein
[5] = biological target: His-PRDM9^Cst ZnF1-11 (Mus musculus castaneus (CAST/EiJ strain)); test: as above
[6] = biological target: His-eYFP-PRDM9^Cst (full-length PRDM9^Cst with KRAB, SSXRD, PR/SET and ZnF domains) (Mus musculus castaneus (CAST/EiJ strain)); test: native gel or EMSA; multimer assay II: construct bound to a 75-bp DNA (Hlx1 for PRDM9^Cst, Pbx1 for PRDM9^Dom2), native gel; MW of the lower shift read against a ladder of free DNA (75-740 bp) and divided by the monomer's MW; four replicates; crude bacterial lysates or in vitro expressed protein
[7] = biological target: His-PRDM9^Cst ZnF (Mus musculus castaneus (CAST/EiJ strain)); test: native gel or EMSA; multimer assay I: construct bound to single-Hlx1 and tandem-Hlx1 DNA fragments of rising length, native 5% polyacrylamide gel; MW of the second complex (supershift) read from the regression of the lower shifts and divided by the monomer's MW; crude bacterial lysates or in vitro expressed protein
[8] = biological target: His-PRDM9^Cst ZnF2-8 (Mus musculus castaneus (CAST/EiJ strain)); test: native gel or EMSA; multimer assay II: construct bound to a 75-bp DNA (Hlx1 for PRDM9^Cst, Pbx1 for PRDM9^Dom2), native gel; MW of the lower shift read against a ladder of free DNA (75-740 bp) and divided by the monomer's MW; four replicates; crude bacterial lysates or in vitro expressed protein
[9] = biological target: His-PRDM9^Cst ZnF2-8 (Mus musculus castaneus (CAST/EiJ strain)); test: native gel or EMSA; multimer assay I: construct bound to single-Hlx1 and tandem-Hlx1 DNA fragments of rising length, native 5% polyacrylamide gel; MW of the second complex (supershift) read from the regression of the lower shifts and divided by the monomer's MW; crude bacterial lysates or in vitro expressed protein
[10] = biological target: His-eYFP-PRDM9^Cst ZnF (Mus musculus castaneus (CAST/EiJ strain)); test: as above
[11] = biological target: His-eYFP-PRDM9^Cst ZnF1-11 (Mus musculus castaneus (CAST/EiJ strain)); test: native gel or EMSA; multimer assay II: construct bound to a 75-bp DNA (Hlx1 for PRDM9^Cst, Pbx1 for PRDM9^Dom2), native gel; MW of the lower shift read against a ladder of free DNA (75-740 bp) and divided by the monomer's MW; four replicates; crude bacterial lysates or in vitro expressed protein
[12] = biological target: His-eYFP-PRDM9^Cst ZnF1-11 (Mus musculus castaneus (CAST/EiJ strain)); test: native gel or EMSA; multimer assay I: construct bound to single-Hlx1 and tandem-Hlx1 DNA fragments of rising length, native 5% polyacrylamide gel; MW of the second complex (supershift) read from the regression of the lower shifts and divided by the monomer's MW; crude bacterial lysates or in vitro expressed protein
[13] = biological target: His-eYFP-PRDM9^Cst ZnF2-11 (Mus musculus castaneus (CAST/EiJ strain)); test: native gel or EMSA; multimer assay II: construct bound to a 75-bp DNA (Hlx1 for PRDM9^Cst, Pbx1 for PRDM9^Dom2), native gel; MW of the lower shift read against a ladder of free DNA (75-740 bp) and divided by the monomer's MW; four replicates; crude bacterial lysates or in vitro expressed protein
[14] = biological target: His-eYFP-PRDM9^Cst ZnF2-11 (Mus musculus castaneus (CAST/EiJ strain)); test: native gel or EMSA; multimer assay I: construct bound to single-Hlx1 and tandem-Hlx1 DNA fragments of rising length, native 5% polyacrylamide gel; MW of the second complex (supershift) read from the regression of the lower shifts and divided by the monomer's MW; crude bacterial lysates or in vitro expressed protein
[15] = biological target: His-MBP-eYFP-PRDM9^Cst ZnF (Mus musculus castaneus (CAST/EiJ strain)); test: native gel or EMSA; multimer assay II: construct bound to a 75-bp DNA (Hlx1 for PRDM9^Cst, Pbx1 for PRDM9^Dom2), native gel; MW of the lower shift read against a ladder of free DNA (75-740 bp) and divided by the monomer's MW; four replicates; crude bacterial lysates or in vitro expressed protein
[16] = biological target: His-Halo-PRDM9^Cst ZnF1-11 (Mus musculus castaneus (CAST/EiJ strain)); test: native gel or EMSA; multimer assay II as a2, with the semipure (ion-exchange) Halo-tagged construct; the shifted band was shown by MALDI-TOF mass spectrometry to hold mainly PRDM9 peptides

Substance: GTGGGAGGAGATGGTGGGTGAATAGTGTGCAGACTTGGACCCTGCCCTTTCTTTACGCATTCCACTAACCATGGG (double strand) [single-Hlx1 75 bp]
Kd ([2]; 60 min incubation): 48 nM

Substance: His-PRDM9^Cst ZnF1-11 (domain or fragment)
stoichiometry N [5]: 3

Substance: His-PRDM9^Cst ZnF (domain or fragment)
stoichiometry N [7]: 3

Substance: His-eYFP-PRDM9^Cst ZnF1-11 (domain or fragment)
stoichiometry N [11]: 3.5
stoichiometry N [12]: 3.8

Substance: His-eYFP-PRDM9^Cst ZnF2-11 (domain or fragment)
stoichiometry N [13]: 3
stoichiometry N [14]: 2.7

Substance: AACCCTGAGCTGCCTAAAGGTCAAATAGTGTGCAGACTTGGACCCTGCCCTTTCTTTAATAGTGTGCAGACTTGGACCCTGCCCTTTCTTTCTGCTGTGAATACCAGAGGCACA (double strand) [tandem-Hlx1 114 bp]
Kd ([2]; sum of lower shift and supershift, two complexes): 35 nM

Substance: His-MBP-eYFP-PRDM9^Cst ZnF (domain or fragment)
stoichiometry N [15]: 3

Other lines, results leading:

stoichiometry N [1]: 3
Substance: His-MBP-eYFP-PRDM9^Dom2 ZnF (domain or fragment)

stoichiometry N [3]: 2.9
stoichiometry N [4]: 2.9
Substance: His-PRDM9^Cst ZnF2–6 (domain or fragment)

stoichiometry N [6]: 3
Substance: His-eYFP-PRDM9^Cst (full-length PRDM9^Cst with KRAB, SSXRD, PR/SET and ZnF domains) (natural protein)

stoichiometry N [8]: 2.5
stoichiometry N [9]: 2.7
Substance: His-PRDM9^Cst ZnF2-8 (domain or fragment)

stoichiometry N [10]: 3
Substance: His-eYFP-PRDM9^Cst ZnF (domain or fragment)

stoichiometry N [16]: 3
Substance: His-Halo-PRDM9^Cst ZnF1-11 (domain or fragment)
